What was measured:
Test in all cases: filter
[1] = tested on: T1, VEGF-121 (Homo sapiens), P15692-9
T1 sequence: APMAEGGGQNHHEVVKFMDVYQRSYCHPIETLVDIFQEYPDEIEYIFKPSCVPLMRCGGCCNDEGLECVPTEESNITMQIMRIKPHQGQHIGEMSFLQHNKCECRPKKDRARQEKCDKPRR

[2] = molecular target: PDGF-BB (platelet-derived growth factor BB) (Homo sapiens) (UniProt P01127)
[3] = tested on: T2, VEGF-165 (Homo sapiens), P15692-4; settings: Nap-dU, Bn-dU, MBn-dU, 2'-OMe, C3; 1 Heg between parts
T2 sequence: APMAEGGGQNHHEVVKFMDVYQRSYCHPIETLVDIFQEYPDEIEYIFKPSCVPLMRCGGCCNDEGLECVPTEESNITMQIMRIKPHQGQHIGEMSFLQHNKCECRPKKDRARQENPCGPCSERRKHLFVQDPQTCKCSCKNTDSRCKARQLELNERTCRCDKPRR

[4] = Nap-dU, Bn-dU, MBn-dU, 2'-OMe, C3, 1 Heg between parts
[5] = PDGF-VEGF, no Heg linker, NapdU, BndU

PDGF-BB (platelet-derived growth factor BB) (Homo sapiens), sequence (P01127 82-190): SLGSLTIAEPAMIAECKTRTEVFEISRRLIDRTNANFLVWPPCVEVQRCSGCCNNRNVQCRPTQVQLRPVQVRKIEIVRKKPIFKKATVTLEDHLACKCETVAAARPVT

CCGTTCAAGTGCTTGTAGGATTTAAATGG [4867-31_481]
Kd ([1]; as 4867-31_192 plus 2'-OMe C1 and PS 3' of A24,A25,A26, 3'-idT): 0.026 nM

CCGTTCAAGTGCTTGTAGGATTTAAATGG [4867-31_482]
Kd ([1]; as 4867-31_192, PS 24,25,26): 0.024 nM

CCGTTCAAGTGCTTGTAGGATTTAAATGG [4867-31_483]
Kd ([1]; as 4867-31_192, PS 24,25): 0.032 nM

CCGTTCAAGTGCTTGTAGGATTTAAATGGCGACAGCATGTATGCACATCT [5169-4_93 (VEGF-6Heg-PDGF)]
Kd ([1]; P NapdU, superscript 1 2'-OMe, six Heg linkers): 0.052 nM

CCGTTCAAGTGCTTGTAGGATTTAAATGGCGACAGCATGTATGCACATCT [5169-4_94]
Kd ([1]; VEGF-5Heg-PDGF, NapdU, 2'-OMe): 0.066 nM

CCGTTCAAGTGCTTGTAGGATTTAAATGGCGACAGCATGTATGCACATCT [5169-4_95]
Kd ([2]; VEGF-4Heg-PDGF, NapdU, 2'-OMe): 0.0012 nM | Kd ([1]; VEGF-4Heg-PDGF, NapdU, 2'-OMe): 0.043 nM

CCGTTCAAGTGCTTGTAGGATTTAAATGGCGACAGCATGTATGCACATCT [5169-4_96]
Kd ([2]; VEGF-3Heg-PDGF, NapdU, 2'-OMe): 0.0045 nM | Kd ([1]; VEGF-3Heg-PDGF, NapdU, 2'-OMe): 0.076 nM

CCGTTCAAGTGCTTGTAGGATTTAAATGGCGACAGCATGTATGCACATCT [5169-4_97]
Kd ([2]; VEGF-2Heg-PDGF, NapdU, 2'-OMe): 0.0037 nM | Kd ([1]; VEGF-2Heg-PDGF, NapdU, 2'-OMe): 0.1 nM

CCGTTCAAGTGCTTGTAGGATTTAAATGGCGACAGCATGTATGCACATCT [5169-4_98]
Kd ([2]; VEGF-1Heg-PDGF, NapdU, 2'-OMe): 0.0053 nM | Kd ([1]; VEGF-1Heg-PDGF, NapdU, 2'-OMe): 0.14 nM

CCGTTCAAGTGCTTGTAGGATTTAAATGGTTACGTTACCGCGTTTATAGCG [4149-8_408]
Kd [2, 4]: 0.043 nM | Kd [1, 4]: 0.044 nM | Kd [3]: 0.041 nM

CCGTTCAAGTGCTTGTATGATTTAAATGGA [4867-31_153]
Kd ([1]; P=Nap-dU): 0.21 nM

CCGTTCAAGTGCTTTAGATTTAAATGG [4867-31_184]
Kd ([1]; NapdU at P, C3 spacer 15,18, 2'-OMe 9,17): 0.084 nM

CCGTTCAAGTGCTTTAGATTTAAATGG [4867-31_185]
Kd ([1]; NapdU at P, C3 spacer 15,18, 2'-OMe 6,9,12,17,28,29): 0.26 nM

CCGTTCAAGTGCTTTAGATTTAAATGG [4867-31_186]
Kd ([1]; NapdU at P, C3 spacer 15,18, 2'-OMe 1,6,9,12,17,25,28,29): 1.6 nM

CCGTTCAAGTGCTTTAGGATTTAAATGG [4867-31_187]
Kd ([1]; 2'-OMe G9,A17, C3 spacer at 15, all P are NapdU, target taken as VEGF-121): 0.032 nM

CCGTTCAAGTGCTTTAGGATTTAAATGG [4867-31_188]
Kd ([1]; NapdU at P, C3 spacer 15, 2'-OMe 9,17,18,28,29 as printed): 0.038 nM

CCGTTCAAGTGCTTTAGGATTTAAATGG [4867-31_189]
Kd ([1]; NapdU at P, C3 spacer 15, 2'-OMe 9,17,18,25,28,29 as printed): 0.9 nM

CCGTTCAAGTGCTTTAGGATTTAAATGG [4867-31_190]
Kd ([1]; NapdU at P, C3 spacer 15, 2'-OMe 9,17,18,22,28,29 as printed): 0.089 nM

CCGTTCAAGTGCTTTTAGGATTTAAATGGA [4867-31_150]
Kd ([1]; P=Nap-dU): 0.24 nM

CCGTTGAAGTGCTTGTAGGATTTAAATGGA [4867-31_146]
Kd ([1]; P=Nap-dU): 5.98 nM

CCGTTTAAGTGCTTGTAGGATTTAAATGGA [4867-31_147]
Kd ([1]; P=Nap-dU): 3.28 nM

CCTCCATCAGCCGTTCAAGTGCTTGTAGGATTTAAATGGAATTGGAGGA [4867-15_24]
Kd ([1]; P=Nap-dU, C3 spacer at 1): 0.11 nM

CCTCCATCAGCCGTTCAAGTGCTTGTAGGATTTAAATGGAATTGGAGGA [4867-15_25]
Kd ([1]; P=Nap-dU, C3 spacer at 2): 0.13 nM

CCTCCATCAGCCGTTCAAGTGCTTGTAGGATTTAAATGGAATTGGAGGA [4867-15_26]
Kd ([1]; P=Nap-dU, C3 spacer at 3): 0.2 nM

CGACAGCATGTATGCACATCTCCGTTCAAGTGCTTGTAGGATTTAAATGG [5169-4_99]
Kd ([2]; PDGF-6Heg-VEGF, NapdU, 2'-OMe): 0.0021 nM | Kd ([1]; PDGF-6Heg-VEGF, NapdU, 2'-OMe): 0.12 nM

CGACAGCATGTATGCACATCTCCGTTCAAGTGCTTGTAGGATTTAAATGG [5169-4_100]
Kd ([2]; PDGF-5Heg-VEGF, NapdU, 2'-OMe): 0.0015 nM | Kd ([1]; PDGF-5Heg-VEGF, NapdU, 2'-OMe): 0.056 nM

CGACAGCATGTATGCACATCTCCGTTCAAGTGCTTGTAGGATTTAAATGG [5169-4_101]
Kd ([1]; PDGF-4Heg-VEGF, NapdU, 2'-OMe): 0.13 nM

CGACAGCATGTATGCACATCTCCGTTCAAGTGCTTGTAGGATTTAAATGG [5169-4_102]
Kd ([2]; PDGF-3Heg-VEGF, NapdU, 2'-OMe): 0.011 nM | Kd ([1]; PDGF-3Heg-VEGF, NapdU, 2'-OMe): 0.14 nM

CGACAGCATGTATGCACATCTCCGTTCAAGTGCTTGTAGGATTTAAATGG [5169-4_103]
Kd ([2]; PDGF-2Heg-VEGF, NapdU, 2'-OMe): 0.0061 nM | Kd ([1]; PDGF-2Heg-VEGF, NapdU, 2'-OMe): 0.12 nM

CGACAGCATGTATGCACATCTCCGTTCAAGTGCTTGTAGGATTTAAATGG [5169-4_104]
Kd ([2]; PDGF-1Heg-VEGF, NapdU, 2'-OMe): 0.0046 nM | Kd ([1]; PDGF-1Heg-VEGF, NapdU, 2'-OMe): 0.28 nM

GCCGTTCAAGTGCTTGTAGGATTTAAATGG [4867-31_144]
Kd ([1]; NapdU at P): 0.2 nM

TTACGTTACACGCGTTTATAGCGCCGTTCAAGTGCTTTAGATTTAAATG [4149-8_317]
Kd [2, 5]: 0.0638 nM | Kd [1, 5]: 0.0809 nM

TTACGTTACCGCGTTTATAGCGCCGTTCAAGTGCTTGTAGGATTTAAATGG [4149-8_401]
Kd ([1]; PDGF_379-3Heg-VEGF_192, NapdU, BndU, MBndU, 2'-OMe, 5' amino linker): 0.027 nM
